Results: paper PMC3699456

T1: soluble RP105 (extracellular domain of mouse RP105, residues Thr21-Ala630) (mouse)
T1 sequence (Q62192 whole entry, looked up): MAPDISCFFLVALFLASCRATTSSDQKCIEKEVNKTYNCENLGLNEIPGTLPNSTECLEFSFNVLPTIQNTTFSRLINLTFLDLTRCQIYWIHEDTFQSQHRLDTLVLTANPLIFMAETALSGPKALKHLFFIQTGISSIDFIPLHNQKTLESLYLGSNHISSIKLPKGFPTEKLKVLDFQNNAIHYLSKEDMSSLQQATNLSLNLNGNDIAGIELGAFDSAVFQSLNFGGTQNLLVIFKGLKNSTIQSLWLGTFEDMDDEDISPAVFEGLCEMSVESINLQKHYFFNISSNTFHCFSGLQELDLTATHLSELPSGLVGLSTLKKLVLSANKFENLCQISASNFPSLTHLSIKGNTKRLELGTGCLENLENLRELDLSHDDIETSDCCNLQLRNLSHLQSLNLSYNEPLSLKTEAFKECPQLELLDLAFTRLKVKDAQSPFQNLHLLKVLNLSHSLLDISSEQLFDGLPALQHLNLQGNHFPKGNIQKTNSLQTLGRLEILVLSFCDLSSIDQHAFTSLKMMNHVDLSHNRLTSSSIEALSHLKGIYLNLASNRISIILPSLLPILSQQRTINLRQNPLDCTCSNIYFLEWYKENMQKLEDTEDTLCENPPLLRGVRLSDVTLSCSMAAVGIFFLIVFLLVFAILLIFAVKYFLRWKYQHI


Columns and labels:
[1] = target: solRP105-MD1 complex (mouse) (UniProt O88188); assay: SEC-MALS; WTC-030S5 column (Wyatt); 50 mM Tris-Cl pH 8.0, 300 mM NaCl; 0.5 ml/min; purified solRP105-MD1 complex
[2] = target: solRP105-MD1 complex (mouse) (UniProt O88188); assay: SEC; Superdex 200 PC3.2/30; 50 mM Tris-Cl pH 8.0, 300 mM NaCl; 0.05 ml/min; purified solRP105 and purified solRP105-MD1 complex
[3] = target: T1, soluble RP105 (extracellular domain of mouse RP105, residues Thr21-Ala630) (mouse); assay: SEC-MALS; WTC-030S5 column (Wyatt); 50 mM Tris-Cl pH 8.0, 300 mM NaCl; 0.5 ml/min; purified solRP105-MD1 complex

solRP105-MD1 complex, sequence (O88188 whole entry, looked up, the tested form may be a part, one chain of several): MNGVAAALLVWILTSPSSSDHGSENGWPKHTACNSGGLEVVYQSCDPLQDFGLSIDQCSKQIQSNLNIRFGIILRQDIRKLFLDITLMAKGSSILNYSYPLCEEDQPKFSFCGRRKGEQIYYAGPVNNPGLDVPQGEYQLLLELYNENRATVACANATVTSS

| stoichiometry N (RP105-MD1 units per complex) [1] | stoichiometry N (RP105-MD1 units per complex) [2] | stoichiometry N (MD1 per RP105 (2:2)) [3] | Molecule |
| --- | --- | --- | --- |
| 2 | 2 | – | solRP105-MD1 complex (from UniProt O88188 20-162) |
| – | – | 1 | mouse MD1 without its native signal sequence (residues Asp20-Ser162) (natural protein, differential N-glycosylation at Asn96 and Asn156) DHGSENGWPKHTACNSGGLEVVYQSCDPLQDFGLSIDQCSKQIQSNLNIRFGIILRQDIRKLFLDITLMAKGSSILNYSYPLCEEDQPKFSFCGRRKGEQIYYAGPVNNPGLDVPQGEYQLLLELYNENRATVACANATVTSSAAA |
